Test: soluble on expression in E. coli; label from the status in PepcDB or PDB records

Row | Sequence | soluble on expression in E. coli
1 | MTLDVPVNQGHVPPGSVACCLVGVTAVADGIAGHSLSNFGALPPEINSGRMYSGPGSGPLMAAAAAWDGLAAELSSAATGYGAAISELTNMRWWSGPASDSMVAAVLPFVGWLSTTATLAEQAAMQARAAAAAFEAAFAMTVPPPAIAANRTLLMTLVDTNWFGQNTPAIATTESQYAEMWAQDAAAMYGYASAAAPATVLTPFAPPPQTTNATGLVGHATAVAALRGQHSWAAAIPWSDIQKYWMMFLGALATAEGFIYDSGGLTLNALQFVGGMLWSTALAEAGAAEAAAGAGGAAGWSAWSQLGAGPVAASATLAAKIGPMSVPPGWSAPPATPQAQTVARSIPGIRSAAEAAETSVLLRGAPTPGRSRAAHMGRRYGRRLTVMADRPNVG | not soluble
2 | MGDWIIKLEDVSAGYGKLQTLFDVSLEIPRGLITVIVGPNGAGKSTLLKTMFGFTTVYKGRVLFENTDVTHMPPHDRAKIGMTFIFQLENIFRELTVYENLRLAGYDLPEDVFRDRLEEVFSMFPRLKERLGQKAGTLSGGERQMLAMAIGIMRKPKVFLIDEPTAGLSPKLAKEVLSYVRILNKEGYTVVLVEQNVKASLEIGDKGVLVVNGRIAFDGPAEELLARKDLAKMYLGV | soluble
3 | MRGSHHHHHHGSADAYPSKAIRVIVPFAPGGSTDIIARLVTQRMSQELGQPMVVENKGGAGGAIGASEAARAEPDGYTLSIATVSTMAVNPACRPKDLPYDPIKDFQPVTNFANTANVVAVNPKFPAKDFKGFLEELKKNPGKYSYGSSGTCGVLHLMGESFKMATGTDIVHVPYKGSGPAVADAVGGQIELIFDNLPSSMPQIQAGKLRAMAIAWPTRIDAIKDVPTFADAGFPVLNQPVWYGLLAPKGTPMDVVNKLRDAAVVALKDPKVIKALDDQGSAPSGNTPEEFAKEIKEQYDWAQDVVKKQNIKLD | soluble
4 | MSDEKKKKRGFFRYSVLTTSSFSSWRRSSTSGSISQSSRTTSKTTTSSSVTSSNPINAPPPTATSSSSVLPSTSSEPPPPASAPPRISIYHKMVPSKSKFRQCDVCEHIFIFDFVRKQHLDDVYACNVCGIRVHKGCLDRVKNDCKITTQYMGGILENAVIQSNKKQWEKPTTASISKSLTTSPTCSTSTTMSPAGVEKNVHKTRKLISMTTSTLDDVTTFNSEINEEMDEETVLMTWEDVTIKLTDVDVMTKIGDGRFGSVYFGGYHGNAAVRFVNMNYLSQEDRRADVFATEIVSAYKNSRHDHIALFYGYVSDPVTNTYAIVTNFYQHNTLYHRIHEQLSEDFDQSWTFQISLQICQAMSYLHKKKILHRDLRTKNILLDNPNRVVVTDFALMKLERLENPRRNCTLLIPNHWIDYLSPEIAGNLMIDWRGDVLFQHELPFSQESDVYSFGTIFFELLLRRMPTGCDSWDQKLYAKMCGQKAALQRLDAQLQKIDGKLHELLLECWSSQPEKRPSFQQIVKRITVQMPRKESNKQKRRSTAHENPLF | not soluble
5 | MAHHHHHHMPTEADLEKIRRERAARYQQLSEAEKPRVEPCPHCHELPYKKEVCPETGIFHNLERHTIVGGAVVQSNIVRSSELMEAIDRSRIRWVESRTQMVRADAVSLNLFQSFVRQLDWSLQRYGILYGKYDASLNLIEVHAIYEPEQHGDAYTFHYLPDKRLPNVDRIAALLGLRRVGAVCTHPPRDIEEMVLSSREILLCAREQSRFGDECVLLTMSPSLTTGRIECQAWQTSPQAVHFYRLGVLREKSDDYSDLESAKYVHSSIPLEVAQQETDEKGHPRVVTMAPSHDIDTRWFTSYVAVQQFESPVVRNLFMRVSRPGMEPPAMINLRNYMEDPKRRKVPLIEKLADFHVLIFLAESVFSVADDMPVIIGAITKQRPAEDAMHYGEVLKLYLEQ | soluble
6 | MAHHHHHHMGQISSKEDEIEKQNIYATYPGLEQQLDMVFACHDISKQGKLSYKTVEMILRHFLMQCGFMEYVCRFVDENGTLDLKHVSNYLSIKKLMYKLKCCGESMLTLDEMKELVIIFLKKISDTYTEDQTKWLEQMKSSQEQQDKALEEAMYKYEKNILFHHAVKEQQILQNDKKLNEWNENVENAYEAQQEILRQFESSRKKNIDISLEKNNELIIAKDYIDKIKEAATDNKYDNSKCFIYPASSAPCGACTSAGAIIHHRRYKEKRRKKEYSLCL | not soluble
7 | MATWTVHLEGGPRRVNHASIAVGSRIYSFGGYCSGEVTDAKDPLDVHVLNTENYRWIKMNPGYVYNNRIITKATIESPYSDSDKMFGAVPYQRYGHTVVEYQGKAYVWGGRNDDYGACNLLHEYDPEYNVWKKVEIEGFVPPSRDGHTAVVWNNQMFVFGGYEEDAQRFSQETYVFDFATSTWREMHTKNDPPRWRDFHTASVIDGMMYIFGGRSDESGQVGDEHLFHTIHDQYDDTLMALNLATGAWTRTKVPENTMKPGGRRSHSTWVYDGKMYMFGGYLGTINVHYNELYCFDPKTSMWSVISVRGTYPSARRRHCSVVSNGKVYLFGGTMPLPCHPLSTTNYNGMISPSGLADLSDLHVLDFAPSLKTLAMQSVLNELKVPSKGMFETLQNELAADIRFEMYCQVMPNVVSNGGSPRNDQAG | not soluble
8 | MRILAIGDIIGRPGRKALRELLPQLKEEVAYDVVIANVENSAGGFGITKKVYEELLEIGIDVMTSGNHIWDKKEVYNFIGEAYNLLRPANYPEGVPGRGYGIFKKNGVEFAVINLMGKVFMDCNLENPFKTFDRIYDELKDKVKIIVVDFHAEATSEKWAFGIYVDGRASFVYGTHTHVPTADEFILKKGTGYVSDIGMTGVWYSAIGMKPKEAIERFLLSLPRRFEVEDKGEIMFNAVLVDIDEETGKTKSIERIKRFL | soluble
9 | MSKKVLIITGDAVEALEVYYPYYRLLEEGHDVTIAAPKKKKLHTVVHDFADWDTYVEKQGYLIDAHASFAEVDPAQYDALVIPGGRAPEYIRLDENVQRIVRHFFEANKPIAAICHASLIFETMPDLLKGRSLTAYIACKPGVEALGATYVSDNTVHVDGNLVSAHAWPDLPAFMREFLRLLQ | soluble
10 | MGSDKIHHHHHHMAARLREFRRAIGDPDREEFARSIGVSKTTLASYERGESEPTASVLFAYREKHGADVLWLVGGEGEMRGSQLSSAAVAERDFVLMPQYDVCASAGTGRLPVNQMPTSETAFERKFLRDLGGAPDHCFLMWSTGDSMLPSIPDNALLIVDASQTTVDHGRIYVFSVGNAVLVKRANWRMDGRLDLISDNTAGKYPVETFDANRVEDLAVVGRVIFVGHPP | not soluble
11 | MMSETGFIDVKIFPQRLLKPETAEKLLNRIYELEGIVRVLVHGPSIPDRVYYGPARGTEVNHSDRRKITVRGEEFELRVKVGEIIVGMLPETLEEKMETIEEILDEVLPCSYKVFIGAFTKKDITISDYLKYGLKFEEKIDPRVIGMVDPSSRMKDTVVNIKLEHHHHHH | soluble
12 | MSESIESYGIRLLNVYRETICDGPGLHYSIYLAGCRHACPGCHNPSSWDPEAGVLMTDSILGNIIREINANPLLDGITLSGGDPFYNPAGLTCLLQRLRASCTLPIWCYTGYTLEQLETDPMLSAPLALIDVLVDGPFVRELFDPTLLWRGSSNQCIIRLHENLEHHHHHH | not soluble
13 | MSVSARSAAAEERSVNCGTMAQPKNLEGYVGFANLPNQVYRKSVKRGFEFTLMVVGESGLGKSTLINSLFLTDLYSPEYPGPSHRIKKTVQVEQSKVLIKEGGVQLLLTIVDTPGFGDAVDNSNCWQPVIDYIDSKFEDYLNAESRVNRRQMPDNRVQCCLYFIAPSGHGLKPLDIEFMKRLHEKVNIIPLIAKADTLTPEECQQFKKQIMKEIQEHKIKIYEFPETDDEEENKLVKKIKDRLPLAVVGSNTIIEVNGKRVRGRQYPWGVAEVENGEHCDFTILRNMLIRTHMQDLKDVTNNVHYENYRSRKLAAVTYNGVDNNKNKGQLTKSPLAQMEEERREHVAKMKKMEMEMEQVFEMKVKEKVQKLKDSEAELQRRHEQMKKNLEAQHKELEEKRRQFEEEKANWEAQQRILEQQNSSRTLEKNKKKGKIF | not soluble
14 | MSDLFIHPELRFHSYGTWLRRRFGCNVSKVNVDGGFTCPNRDGSRGTGGCIYCDNASFSPGGTVPDKSIELQMAEGMAYHRQRLGSEKFIIYFQKFTNTYAPAARLRDLYTRALSHPDVVGISVGTRPDALADEALELLADLAQEHYVCIELGLQSMDDAILERINRGHTLDEYLRTVDRIAGRGIALCTHLIYGFPGETREGFLKTAHLLAGLPVDSVKLHQLHAVKGTRLAELYHRREFVPITLAEYVTTACDFLELLPPRI | not soluble

Source: the DeepSol protein solubility set
